Assay results from the nanobody polyreactivity screen of Harvey et al. (2022).

Experiment: yeast display, Sf9 membrane polyspecificity reagent, FACS + sequencing; frameworks hold sequencing errors
In short: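 In a synthetic yeast display library (Saccharomyces cerevisiae BJ5465), nanobody expression was induced with galactose for 36–48 hours. FACS gates were set low and high (top ~1%) using anti-HA fluorescence for expression and streptavidin fluorescence for binding of the Sf9 membrane reagent. Each polyreactivity label is drawn from the gate of origin.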

Sequence: QVQLVESGGGLVQAGGRLRLSCAASGRTFIPYAMGWYRQAPGNERELVAAIRNGGSTNYADSVKGRFTISRDIAKNTVYLQMNSLKPEDTAVYYCNADLPVYVDYINGCYGYWGQGTQVTVSS
- polyreactivity (PSR sort gate): low polyreactivity

Sequence: QVQLVESGGGLVQAGGRLRLSCAASGRTFPGYDMGWYRQAPGKERELVAAITRSGGSTYYADSVKGRFTISRDNAKNTVYLQMNSLKPEDTAVYYCATERHFYYSTFYYWGQGTQVTVSS
- polyreactivity (PSR sort gate): high polyreactivity

Sequence: QVQLVESGGGLVQAGGRLRLSCAASGRTFYYYAMGWYRQAPGKERELVASITYRGTRTNYADSVKGRFTISRDNAKNTVYLQMNILKPEDTAVYSCNAEVYTGYGYWGQGTQVTVSS
- polyreactivity (PSR sort gate): high polyreactivity

Sequence: QVQLVESGGGLVQAGGRLRLSCAASGRTIDHYAMGWYRQAPGKERELVAAISTTGGSTYYADSVKGRFTISRDNAKNTVYLQMNSLKPEDTAVYYCAARGLRTGGYWGQGTQVTVSS
- polyreactivity (PSR sort gate): high polyreactivity

Sequence: QVQLVESGGGLVQAGGRLRLSCAASGRTIGVYAMGWYRQAPGKERELVAAISWSGGTTYYADSVKGRFTISRDNAKNTVYLQMNSLKPEDTGVYYCAADGEYPHSEDFEYWGQGTQVTVSS
- polyreactivity (PSR sort gate): low polyreactivity

Sequence: QVQLVESGGGLVQAGGRLRLSCAASGRTLGANAMGWYRQAPGKERELVAAITDSGGSTYYADSVKGRFTISRDNAKNTVYLQMNSLKPEDTAVYYCAAKQAYSSTYVWPIFDYWGQGTQVTVSS
- polyreactivity (PSR sort gate): low polyreactivity

Sequence: QVQLVESGGGLVQAGGRLRLSCAASGRTLYRYVMVWYRQAPWKERELVAAISATAGSTYYADSVKGRFTISRDNAKNTVYLQMNSLTPEDTAVYYCAAEGYTLWYWLEFEYWGQGTQVTVSS
- polyreactivity (PSR sort gate): high polyreactivity

Sequence: QVQLVESGGGLVQAGGRLRLSCAASGSIFAGYVMGWYRQAPGKERELVAAISKSGGSTYYADSVKGRFTISRDNAKNTVSLQMNSLKPEDTAVYYSAKDHYYVDYDYWGQGTQVTVSS
- polyreactivity (PSR sort gate): high polyreactivity

Sequence: QVQLVESGGGLVQAGGRLRLSCAASGSIFDYNGMGWYRQAPGKERELVATITLSTARTYYADSVKGRFTISRDNAKNTVYLQMNSLKPEDTAVYYCATRYPKFRRRNYWGQGTQVTVSS
- polyreactivity (PSR sort gate): high polyreactivity

Sequence: QVQLVESGGGLVQAGGRLRLSCAASGSIFFAYAMGWYRQAPGKERELVAAITSGVSTNYADSVKGRFTISRDNAKNTVYLQMNSLKPEDTAVYYCNADFDYGFDAGVAVQVVIHDYWGQGTQVTVSS
- polyreactivity (PSR sort gate): low polyreactivity

Sequence: QVQLVESGGGLVQAGGRLRLSCAASGSIFGRNAMGWYRAAPGKERELVAAITGSTYYADSVKGRFTSSRDNAKNTVYLQMNSLKPEDTAVYYCNADYDVGWTYDTEYNYWGQGTQVTVSS
- polyreactivity (PSR sort gate): low polyreactivity

Sequence: QVQLVESGGGLVQAGGRLRLSCAASGSIFIGYAMGWYRPAPGKERELVAAISGSGSSTYYADSVKGRFTISRDNAKNTVYLQMNSLKPEDTAVYYCAARTYSRFTASTYYYWGQGTQVTVSS
- polyreactivity (PSR sort gate): high polyreactivity

Sequence: QVQLVESGGGLVQAGGRLRLSCAASGSIFIYYAMGWYRQAPGKERELVAAISNGGSTNYADSVKGRFTISRDNAKNTVYLQMNSLKPEDTAVYYCNTDWGYFHGVRAYLGYGYWGQGTQVTVSS
- polyreactivity (PSR sort gate): low polyreactivity

Sequence: QVQLVESGGGLVQAGGRLRLSCAASGSIFPANAMGGSRQAPGKERELVAGISERGSSTYYADSVKGRFTISRDNAKNTVYLQMNSLKPEDTAVYYCAADDVGRYWSSTHNWARGDYWGQGTQVTVSS
- polyreactivity (PSR sort gate): low polyreactivity

Sequence: QVQLVESGGGLVQAGGRLRLSCAASGSIFQSYAMGWYRQAPGKERELVAVITGGGGSTYYADSVKGRFTISRDNAKNTVYLQMNSLKPEDTAVYYCAARPVTSYAYGSWGQGTQVTVSS
- polyreactivity (PSR sort gate): low polyreactivity

Sequence: QVQLVESGGGLVQAGGRLRLSCAASGSIFRFYAMGWYRQAPGKERELVASISSGGSTYYADSVKGRFTISRDNAKNTVYLKLNSLKAEDTAVYYCAHGFAQYGVDLDPGDYDYWGQGTQVTVSS
- polyreactivity (PSR sort gate): low polyreactivity

Sequence: QVQLVESGGGLVQAGGRLRLSCAASGSIFRRYAMGWYRQEPGKERELVAVITTDGSTYYADSVKGRFTISRDNAKNTVYLQMNSLKPEDTAVYYCAAEVYVIGDSGYDYWGQGTQVTVSS
- polyreactivity (PSR sort gate): low polyreactivity
